We go through one sequence from the Immune Epitope Database (IEDB).

Targets include HLA-B*08:01; HLA-A*01:01; HLA-A*11:01; HLA-B*08:03; HLA-B*18:01; HLA-B*15:01; HLA-A*26:02; HLA-A*26:03; HLA-A*26:01; HLA-B*15:09.
What all share (test): IEDB peptide-MHC binding, purified MHC/competitive/fluorescence; filed as Kd, often an IC50 or EC50 that approximates it; ≥ and ≤ were set here for values at or beyond the usual limits of such assays
Holding throughout (settings): source organism: Human immunodeficiency virus 1

Consider GTEEIKSLY, for which the Kd with HLA-B*08:01 is not below 20000 nM; with HLA-A*01:01, 13.8 nM; in the assay with HLA-A*11:01, not below 20000 nM; with HLA-B*08:03 it was not below 20000 nM; in the assay with HLA-B*18:01, 77.7 nM; in the assay with HLA-B*15:01, not below 20000 nM. The Kd is 1210 nM in the assay with HLA-A*26:02, not below 20000 nM in the assay with HLA-A*26:03, 1570 nM in the assay with HLA-A*26:01 and not below 20000 nM with HLA-B*15:09.
